Laboratory results from patent publication US20250296971A1, “GASTRIC INHIBITORY PEPTIDE RECEPTOR LIGANDS” (priority 2021, published 2025).
*1 amine or outer side, *2 acyl side, *3 side chain or, on linkers, in order; H or OH if unused. Bridges are numbered along the chain shown (N, C = ends). Primed or numbered codes have the meaning given here. [ ]: non-standard residue; d: D form. The star is where a group is joined. Ttds = 1,13-diamino-4,7,10-trioxatridecan-succinamic acid, NCCCOCCOCCOCCCNC(=O)CCC(=O)*; dE(AGLU) = D-glutamic acid bearing 1-amino-1-deoxy-D-glucitol; Ttds(4) = 1,13-diamino-4,7,10-trioxatridecan-succinamic acid; Pro(trans-4-NH2) = O=C([C@@H]1C[C@@H](N[*:3])CN1[*:1])[*:2]; DOTA = O=C(O)CN1CCN(CC(=O)O)CCN(CC(=O)*)CCN(CC(=O)O)CC1; Trp(5-Cl) = N[C@@H](Cc1c[nH]c2ccc(Cl)cc12)C(=O)O; Pyridine(2,6-diCH2) = c1cc(C[*:1])nc(C[*:2])c1; Phe(2,4-Cl2) = N[C@@H](Cc1ccc(Cl)cc1Cl)C(=O)O; Trp(7-aza) = N[C@@H](Cc1c[nH]c2ncccc12)C(=O)O; 2Lut″ = 2,6-lutidylidene linking two thiols; APAc = 4-amino-1-carboxymethylpiperidine; Phe(4-Cl) = N[C@@H](Cc1ccc(Cl)cc1)C(=O)O; Phe(2-Cl) = N[C@@H](Cc1ccccc1Cl)C(=O)O; 1Nal = N[C@@H](Cc1cccc2ccccc12)C(=O)O; mXylylene = c1cc(C[*:1])cc(C[*:2])c1; Glutaryl = O=C(CCCC(=O)[*:2])[*:1]; AGLU = 1-amino-1-deoxy-D-glucitol; Hyp = O=C(O)[C@@H]1C[C@@H](O)CN1; Cysteamide = C(CS[*:3])N[*:1]; Api = NC1(C(=O)O)CCNCC1; Thp = NC1(C(=O)O)CCOCC1; Aib = CC(C)(N)C(=O)O

Legend:
[1] = biological target: human Gastric Inhibitory Peptide Receptor (GIPR) (human) (UniProt P48546); assay: FACS competition vs biotinylated GIP-057 on CHO-K1-hGIPR cells; category D: pIC50 <=6.0
[2] = biological target: human Gastric Inhibitory Peptide Receptor (human) (UniProt P48546); assay: FACS competition with GIP-057 on CHO-K1-hGIPR cells; pIC50 category B: 7.1-8.0
Chain of human Gastric Inhibitory Peptide Receptor (human) (P48546 22-466 limits assumed): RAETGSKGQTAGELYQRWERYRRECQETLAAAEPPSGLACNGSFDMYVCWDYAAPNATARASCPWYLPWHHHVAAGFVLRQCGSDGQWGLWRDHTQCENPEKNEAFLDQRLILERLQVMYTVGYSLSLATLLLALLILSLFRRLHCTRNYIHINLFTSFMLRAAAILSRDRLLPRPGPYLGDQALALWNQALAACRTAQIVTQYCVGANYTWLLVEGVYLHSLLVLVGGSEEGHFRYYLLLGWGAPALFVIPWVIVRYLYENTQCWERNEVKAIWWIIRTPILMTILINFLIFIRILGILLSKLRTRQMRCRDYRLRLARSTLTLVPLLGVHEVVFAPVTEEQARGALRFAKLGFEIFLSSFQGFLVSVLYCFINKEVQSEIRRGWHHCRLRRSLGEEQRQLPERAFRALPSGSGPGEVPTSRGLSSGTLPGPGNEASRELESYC

Binder | pIC50 [1] [pic50] | pIC50 [2] [pic50]
Ac-DW[Trp(5-Cl)][Hyp]E[dL]C[Thp]LRC-NH2 (linker 7-11 via Pyridine(2,6-diCH2); SMILES CC(=O)N[C@@H](CC(=O)O)C(=O)N[C@@H](Cc1c[nH]c2ccccc12)C(=O)N[C@@H](Cc1c[nH]c2ccc(Cl)cc12)C(=O)N1C[C@H](O)C[C@H]1C(=O)N[C@@H](CCC(=O)O)C(=O)N[C@H](CC(C)C)C(=O)N[C@H]1CSCc2cccc(n2)CSC[C@@H](C(N)=O)NC(=O)[C@H](CCCNC(=N)N)NC(=O)[C@H](CC(C)C)NC(=O)C2(CCOCC2)NC1=O) [Ac-Asp-Trp-5Clw-Hyp-Glu-leu-[Cys(2Lut)-Thp-Leu-Arg-Cys]-NH2] | < 6 | –
Ac-D[Trp(7-aza)][1Nal]PE[dL]C[Aib]LIC-{Ttds(4)-K(DOTA)-NH2} (linker 7-11 via mXylylene) [Ac-Asp-7Nw-1Ni-Pro-Glu-leu-[Cys(3MeBn)-Aib-Leu-Ile-Cys]-Ttds-Lys(DOTA)-NH2] | < 6 | –
Ac-DW[Phe(2-Cl)][Hyp]E[dL]C[Thp]LIC-NH2 (linker 7-11 via 2Lut″) [Ac-Asp-Trp-Ocf-Hyp-Glu-leu-[Cys(2Lut)-Thp-Leu-Ile-Cys]-NH2] | < 6 | –
Ac-DW[Phe(4-Cl)][Hyp]E[dL]C[Thp]LIC-NH2 (linker 7-11 via 2Lut″) [Ac-Asp-Trp-Pcf-Hyp-Glu-leu-[Cys(2Lut)-Thp-Leu-Ile-Cys]-NH2] | < 6 | –
Ac-DW[Phe(2,4-Cl2)][Hyp]E[dL]C[Thp]LIC-NH2 (linker 7-11 via Pyridine(2,6-diCH2)) [Ac-Asp-Trp-Egm-Hyp-Glu-leu-[Cys(2Lut)-Thp-Leu-Ile-Cys]-NH2] | < 6 | –

Next, values leading:

pIC50 [1] [pic50] | pIC50 [2] [pic50] | Binder
< 6 | – | {DOTA-Ttds}-[Trp(5-Cl)]PE[dL]DWCIL[Aib][Cysteamide] (linker 7-11 via mXylylene) [DOTA-Ttds-5Clw-Pro-Glu-leu-Asp-Trp-[Cys(3MeBn)-Ile-Leu-Aib-AET]]
< 6 | – | {DOTA-Ttds}-[dL]DP[Trp(5-Cl)]WLCE[Aib]I[Cysteamide] (linker 7-11 via mXylylene) [DOTA-Ttds-leu-Asp-Pro-5Clw-Trp-Leu-[Cys(3MeBn)-Glu-Aib-Ile-AET]]
– | 7.1 to 8 | {AGLU-Glutaryl}-DW[Trp(5-Cl)][Pro(trans-4-NH2)]E[dL][dC][Api](DOTA)LI[dC]-{APAc-dE(AGLU)-NH2} (linker 7-11 via Pyridine(2,6-diCH2)) [AGLU-Glutar-Asp-Trp-5Clw-Tap-Glu-leu-[cys(2Lut)-Apc(DOTA)-Leu-Ile-cys]-APAc-glu(AGLU)-NH2]
